Laboratory results reported in PMC2817471.
Like-named read-outs stand apart in the source and are kept apart here.

T1: XPD (Sulfolobus acidocaldarius, UniProt Q4JC68 1-551)
T1 sequence: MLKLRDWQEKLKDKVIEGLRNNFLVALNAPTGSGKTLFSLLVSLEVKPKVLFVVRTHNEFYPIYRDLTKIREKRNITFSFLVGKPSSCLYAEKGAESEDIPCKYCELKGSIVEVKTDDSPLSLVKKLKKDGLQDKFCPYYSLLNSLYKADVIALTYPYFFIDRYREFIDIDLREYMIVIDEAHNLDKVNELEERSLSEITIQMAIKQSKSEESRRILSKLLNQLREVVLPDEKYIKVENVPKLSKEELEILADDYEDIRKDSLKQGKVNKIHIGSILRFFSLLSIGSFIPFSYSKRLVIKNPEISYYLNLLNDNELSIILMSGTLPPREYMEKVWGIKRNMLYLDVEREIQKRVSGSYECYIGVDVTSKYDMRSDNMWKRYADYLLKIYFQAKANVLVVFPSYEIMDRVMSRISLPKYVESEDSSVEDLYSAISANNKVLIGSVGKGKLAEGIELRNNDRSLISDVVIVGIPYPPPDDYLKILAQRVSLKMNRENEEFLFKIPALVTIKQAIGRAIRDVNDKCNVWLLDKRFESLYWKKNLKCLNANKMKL


How the values were obtained:
[1] = target: T1, XPD; assay: ITC
[2] = target: T1, XPD; assay: ITC; remark: listed apart in the source

Row | Binder | Kd [1] | Kd [2]
1 | TTTTTTTTTTTT (ssDNA) [ITC-T12] | 5.6 µM | –
2 | TTTTTTTT (ssDNA) [ITC-T8] | – | > 40 µM
